We go through four molecules from PMC3923783, “Competitive and Cooperative Interactions Mediate RNA Transfer from Herpesvirus Saimiri ORF57 to the Mammalian Export Adaptor ALYREF”.

Series [1] has as its target ORF57 8-120;ALYREF 1-155 (REF2-I) (Herpesvirus saimiri;mouse, UniProt P13199;Q9JJW6 8-120;1-155, |). In words: intrinsic Trp fluorescence titration; RNA into preformed 1:1 ORF57-ALYREF complex, 10 uM; apparent macroscopic Kd; Fluorescence: 20 mM phosphate pH 6.2, 50 mM NaCl, 50 mM L-Arg+L-Glu, 5 mM EDTA, 1 mM TCEP (temperature not stated); NMR: 20 mM phosphate pH 6.2, 50 mM NaCl, 50. The note with it: protein: recombinant;recombinant; tags: ;; copies: 1;1.

Series [2] deals with T1, ORF57 8-120 (Herpesvirus saimiri, UniProt P13199 8-120). In words: intrinsic Trp fluorescence titration; Fluorescence: 20 mM phosphate pH 6.2, 50 mM NaCl, 50 mM L-Arg+L-Glu, 5 mM EDTA, 1 mM TCEP (temperature not stated); NMR: 20 mM phosphate pH 6.2, 50 mM NaCl, 50. The note with it: protein: recombinant.
Series [3] addresses T1, ORF57 8-120. In words: NMR (HSQC titration, saturation transfer); aa64-120 broadened beyond detection at 1:1; Fluorescence: 20 mM phosphate pH 6.2, 50 mM NaCl, 50 mM L-Arg+L-Glu, 5 mM EDTA, 1 mM TCEP (temperature not stated); NMR: 20 mM phosphate pH 6.2, 50 mM NaCl, 50. The note with it: protein: recombinant.
For the next series, the target named is His-ORF57 8-120 WT (Herpesvirus saimiri, UniProt P13199 8-120). In words: UV cross-linking; Fluorescence: 20 mM phosphate pH 6.2, 50 mM NaCl, 50 mM L-Arg+L-Glu, 5 mM EDTA, 1 mM TCEP (temperature not stated); NMR: 20 mM phosphate pH 6.2, 50 mM NaCl, 50. To be noted: protein: recombinant; tags: His6; label: radioactive end label.
His-ORF57 8-120 WT, sequence (P13199 8-120): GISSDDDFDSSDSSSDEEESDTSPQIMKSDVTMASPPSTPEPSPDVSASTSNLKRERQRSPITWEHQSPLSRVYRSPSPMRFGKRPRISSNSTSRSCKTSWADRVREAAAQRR

T1 sequence (P13199 8-120): as above
ORF57 8-120;ALYREF 1-155 (REF2-I), sequence (P13199 8-120, chain 1 of 2): as the sequence (P13199 8-120) above
ORF57 8-120;ALYREF 1-155 (REF2-I), sequence (Q9JJW6 1-155, chain 2 of 2): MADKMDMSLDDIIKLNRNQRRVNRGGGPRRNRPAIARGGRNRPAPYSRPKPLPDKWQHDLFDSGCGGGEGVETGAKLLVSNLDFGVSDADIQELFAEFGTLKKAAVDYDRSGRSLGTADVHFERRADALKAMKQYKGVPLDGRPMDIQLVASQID

B1: 14merS (ssRNA)
RNA: CAGUCGCGAAGAGG
B1: the results for the Kd (in series [1]; with ORF57 8-120 [2]) were 1.55 ± 0.24 µM and 7.57 ± 0.06 µM, respectively.

B2: 7merS (ssRNA)
RNA: GAAGAGG
With B2, the binding result in the series with ORF57 8-120 [3] is recorded as “binds”.

B3: 7merS end-labeled (ssRNA)
RNA: GAAGAGG
Consider B3, for which the binding result in the series with His-ORF57 8-120 WT is “binds”.

B4: 7merN (ssRNA)
RNA: CAGUCGC
As for B4, the Kd with ORF57 8-120 [2] was determined as 38.8 ± 0.6 µM.
